According to patent US20210380703A1 (RIGEL PHARMACEUTICALS, published 2021):
Where a chain is given by its changes, count along the chain named.

Key:
human ACVR2A = molecular target: T1, human ACVR2A (human, UniProt P27037 20-135, limits assumed); assay: ELISA
T1 construct: coated antigen of the initial ELISA; also called activin receptor, type II A
In short: (§1)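 Monoclonal antibodies were first applied to human or mouse ACVR2A, alongside biotinylated goat anti-human kappa light chain (positive control) and human Fc (negative control); binding was then determined by ELISA.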

mouse ACVR2A = molecular target: T2, mouse ACVR2A (mouse, UniProt P27038 20-135, limits assumed); assay: ELISA
T2 construct: coated antigen of the initial ELISA
T2 sequence (P27038 20-135 limits assumed): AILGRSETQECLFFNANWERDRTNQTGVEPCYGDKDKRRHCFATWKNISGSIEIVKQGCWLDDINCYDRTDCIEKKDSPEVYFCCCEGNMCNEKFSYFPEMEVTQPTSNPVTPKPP
In short: as §1

[1] = molecular target: T3, biotinylated goat anti-human kappa light chain; assay: ELISA, positive control
T3 construct: positive control of the ELISA
In short: as §1
Also: test concentration or dose not given here.

T1 sequence (P27037 20-135 limits assumed): as the sequence (P27038 20-135 limits assumed) above, with R20K, I73V counted along it

B1: 374_B08 (antibody, V domains shown)
VH: EVQLLESGGGLVQPGGSLRLSCAASGFTFDSYSMNWVRQAPGKGLEWVAGINYNGGYTSYADSVKGRFTISRDNSKNTLYLQMNSLRAEDTAVYYCARGANWHDTALDYWGQGTLVTVSS
VL: DIQMTQSPSSLSASVGDRVTITCRASQSIVSYVNWYQQKPGKAPKLLIYAATSRHSGVPSRFSGSGSGTDFTLTISSLQPEDFATYYCQQSYELPLTFGGGTKVEIK
notes: Group III
For B1, the optical density (human ACVR2A) was 3.6 OD, the optical density (mouse ACVR2A) was 3.63 OD and the optical density [1] was 3.12 OD.

B2: 373_H09 (antibody, V domains shown)
VH: B1 VH with D30S, S33G, G50S, G55S, T58K, A106H
VL: B1 VL with V30I, S31T, V33L, L47V, H55A, Y92D, E93D, L94S
notes: Group III
For B2, the optical density (human ACVR2A) was 0.93 OD, the optical density (mouse ACVR2A) was 1.35 OD and the optical density [1] was 3.08 OD.

B3: 373_A05 (antibody, V domains shown)
VH: B1 VH with D30S, S31D, A49S, G55S, T58K, A106H
VL: B1 VL with V30L, L47V, L94S
notes: Group III
For B3, the optical density (human ACVR2A) was 3.45 OD, the optical density (mouse ACVR2A) was 3.42 OD and the optical density [1] was 3.03 OD.

B4: 373_F11 (antibody, V domains shown)
VH: B1 VH with S33G, N35H, A49S, G55S, A106H
VL: B1 VL with H55A, E93N
notes: Group III
For B4, the optical density (human ACVR2A) was 3.35 OD, the optical density (mouse ACVR2A) was 3.46 OD and the optical density [1] was 3.32 OD.

B5: 373_A01 (antibody, V domains shown)
VH: B1 VH with D30S, S33G, A49S, G50N, S59G, A106H
VL: B1 VL with S31T, V33L, L47V, A51T, H55A, E93N
notes: Group III
In the case of B5, the optical density (human ACVR2A) is reported as 3.18 OD, the optical density (mouse ACVR2A) is reported as 3.48 OD and the optical density [1] is reported as 2.95 OD.

B6: 374_A06 (antibody, V domains shown)
VH: B1 VH with D30S, A49S, G50S, G55S, A106H
VL: B1 VL with V30L, V33L, L47V, H55A, E93D, L94S
notes: Group III
In the case of B6, the optical density (human ACVR2A) is reported as 3.77 OD, the optical density (mouse ACVR2A) is reported as 3.75 OD and the optical density [1] is reported as 3 OD.

B7: 373_D12 (antibody, V domains shown)
VH: B1 VH with A49S, G50S, G55S, T58K, S59G, A106H
VL: B1 VL with V30L, H55A, E93S
notes: Group III
Work on B7 yielded an optical density (human ACVR2A) of 3.4 OD, an optical density (mouse ACVR2A) of 3.21 OD and an optical density [1] of 3.21 OD.

B8: 374_C01 (antibody, V domains shown)
VH: B1 VH with S33G, A49S, G55S, T58K
VL: B1 VL with V30L, S31T, V33L, H55A, L94T
notes: Group III
For B8, the optical density (human ACVR2A) was 2.69 OD, the optical density (mouse ACVR2A) was 2.93 OD and the optical density [1] was 3.08 OD.

B9: 374_B10 (antibody, V domains shown)
VH: B1 VH with D30S, A49S, G50S, G55S, A106H
VL: B1 VL with V30L, S31T, L47V, R54L, H55A, E93D, L94T
notes: Group III
B9 gave an optical density (human ACVR2A) of 3.71 OD, an optical density (mouse ACVR2A) of 3.69 OD and an optical density [1] of 3 OD.

B10: 374_C09 (antibody, V domains shown)
VH: B1 VH with S33G, A49S, G50S, T58K, S59G, A106H
VL: B1 VL with V33L, L47V, H55A
notes: Group III
B10 showed an optical density (human ACVR2A) of 3.43 OD, an optical density (mouse ACVR2A) of 3.51 OD and an optical density [1] of 3.14 OD.

B11: 373_G08 (antibody, V domains shown)
VH: B1 VH with A49S, G50N
VL: B1 VL with V30L, S31T, V33L, R54L, H55A, E93D, L94S
notes: Group III
B11 showed an optical density (human ACVR2A) of 3.65 OD, an optical density (mouse ACVR2A) of 3.67 OD and an optical density [1] of 3.28 OD.

B12: 372_E01 (antibody, V domains shown)
VH: B1 VH with S31D, A49S, T58K, S59G
VL: B1 VL with V33L, L47V, E93D, L94S
notes: Group III
In the case of B12, the optical density (human ACVR2A) is reported as 3.34 OD, the optical density (mouse ACVR2A) is reported as 3.34 OD and the optical density [1] is reported as 3.6 OD.

B13: 373_D03 (antibody, V domains shown)
VH: B1 VH with D30S, A49S
VL: B1 VL with V33L, R54L, H55A, E93D, L94T
notes: Group III
Binder B13 has an optical density (human ACVR2A) of 3.75 OD, an optical density (mouse ACVR2A) of 3.69 OD and an optical density [1] of 3.18 OD.

B14: 374_A09 (antibody, V domains shown)
VH: B1 VH with D30S, A49S, G50S, T58K, S59G, A106H
VL: B1 VL with V30L, S31T, R54L, H55A, E93D, L94S
notes: Group III
Work on B14 yielded an optical density (human ACVR2A) of 3.58 OD, an optical density (mouse ACVR2A) of 3.64 OD and an optical density [1] of 2.97 OD.

B15: 373_C07 (antibody, V domains shown)
VH: B1 VH with G55S, A106H
VL: B1 VL with V30L, S31T, V33L, L47V, H55A, L94T
notes: Group III
In the case of B15, the optical density (human ACVR2A) is reported as 3.57 OD, the optical density (mouse ACVR2A) is reported as 3.58 OD and the optical density [1] is reported as 3.3 OD.

B16: 373_C10 (antibody, V domains shown)
VH: B1 VH with D30S
VL: B1 VL with V30L, S31T, H55A, E93D, L94N
notes: Group III
B16 was tested, and the optical density (human ACVR2A) was 3.65 OD, the optical density (mouse ACVR2A) was 3.65 OD and the optical density [1] was 3.23 OD.

B17: 373_F12 (antibody, V domains shown)
VH: B1 VH with D30S, A49S, G50N, S59G
VL: B1 VL with V30S, S31T, V33L, L47V, H55A, L94T
notes: Group III
In the case of B17, the optical density (human ACVR2A) is reported as 3.25 OD, the optical density (mouse ACVR2A) is reported as 3.22 OD and the optical density [1] is reported as 3.06 OD.

B18: 373_B05 (antibody, V domains shown)
VH: B1 VH with D30S, S31D, A49S, G50N, T58K
VL: B1 VL with S31T, V33L, L47V, H55A, E93S, L94N
notes: Group III
With B18 the optical density (human ACVR2A) was 3.59 OD, the optical density (mouse ACVR2A) was 3.53 OD and the optical density [1] was 3.23 OD.
